Drawing on article PMC9670587, this text covers antibody-dependent cellular phagocytosis (ADCP), EC50 for one substance.

For assay [1], the target named is FcγRIIA (UniProt P12318).
For assay [2], the target named is FcγRIIIA (UniProt P08637).
UniProt P08637, sequence (P08637 17-254): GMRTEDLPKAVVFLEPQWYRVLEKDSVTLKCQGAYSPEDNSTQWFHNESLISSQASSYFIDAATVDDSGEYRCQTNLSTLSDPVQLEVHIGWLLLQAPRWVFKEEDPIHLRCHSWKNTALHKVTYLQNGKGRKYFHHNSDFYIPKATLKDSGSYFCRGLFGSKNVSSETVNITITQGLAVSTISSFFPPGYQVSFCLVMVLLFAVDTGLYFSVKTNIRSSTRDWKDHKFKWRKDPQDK

UniProt P12318, sequence (P12318 34-317): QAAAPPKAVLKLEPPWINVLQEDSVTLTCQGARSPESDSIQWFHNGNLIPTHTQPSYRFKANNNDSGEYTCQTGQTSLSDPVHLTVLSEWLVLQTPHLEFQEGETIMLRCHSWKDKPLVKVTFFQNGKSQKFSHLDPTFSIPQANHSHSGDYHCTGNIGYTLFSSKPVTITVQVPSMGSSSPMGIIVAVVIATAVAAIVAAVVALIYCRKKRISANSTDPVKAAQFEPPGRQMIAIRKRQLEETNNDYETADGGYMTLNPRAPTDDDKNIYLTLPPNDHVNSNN

For “IMM01, recombinant SIRPα-Fc fusion protein”, the antibody-dependent cellular phagocytosis (ADCP), EC50 in assay [1] and in assay [2] was 139 pM each time.
